Assay results published in patent US20160158369A1, “PHARMACEUTICAL COMPOSITION FOR RESPIRATORY ADMINISTRATION” (SEIKAGAKU CORPORATION, priority 2013, published 2016).

Tests used:
[1] = Drug dissociation test: polysaccharide derivative in buffer solution, 36°C, 1 week, HPLC; type: physicochemical
Description: In the examples relating to drug dissociation test, the drug dissociation ratio was evaluated as described below.
Sodium dihydrogen phosphate dihydrate (780 mg (5.0 mmol)) was dissolved in 500 mL of distilled water to give a liquid A. Separately, disodium hydrogen phosphate dodecahydrate (1.79 g (5.0 mmol)) was dissolved in 500 mL of distilled water to give a liquid B. By mixing the liquid A and liquid B at ratio of 2:3, a phosphate buffer solution of pH 7.5 was prepared.
0.62 g (10 mmol) of boric acid and 0.75 g (10 mmol) of potassium chloride were weighed and dissolved in 500 mL of distilled water to give a liquid C. Separately, by diluting 0.1 N sodium hydroxide solution with distilled water (×10 dilution), a liquid D was prepared.
50 mL of the liquid C and 7 mL of the liquid D were added to a 100 mL mess flask, and according to dilution to 100 mL with distilled water, a borate buffer solution of pH 8.0 was prepared. Furthermore, 50 mL of the liquid C and 40 mL of the liquid D were added to a 100 mL mess flask, and according to mess-up to 100 mL with distilled water, a borate buffer solution of pH 9.0 was prepared.
Each polysaccharide derivative obtained from above was dissolved in a buffer solution at each pH so as to have a concentration of 5 mg/10 mL, and heated for 1 week in an incubator at 36° C. Then, the drug dissociation ratio during the incubation was evaluated every 24 hours by liquid chromatography (HPLC).
The evaluation was performed by measuring the ratio between the drug amount remained in a polysaccharide derivative and the dissociated drug amount according to use of a size exclusion chromatography column (manufactured by TOSOH, TSKgel α-6000, 7.8 mmI.D.×30 cm).
Detailed conditions for the liquid chromatography are as follows.
Analysis time: 40 minutes
Solution for elution: acetonitrile (for HPLC):physiological saline=1:2
Detector: UV detector (240 nm)

[2] = test system: mouse antigen-induced airway hypersensitivity model; assay: Mouse antigen-induced airway hypersensitivity model (AHR, Penh, PC100); type: in vivo; conditions: single intratracheal administration 40 μL, 1 week before the evaluation
Description: For the evaluation, BALB/cCrSlc (Japan SLC, Inc., 11-week old) was used. […] Intratracheal administration (volume: 40 μL) of the budesonide suspension, mixture of budesonide and chondroitin sulfate, and an aqueous solution of the compound va was performed by using a glass microsyringe (Ito Micro Syringe, manufactured by ITO SEISAKUSHO CO., LTD.) after fixing the mouse on its back under general anesthesia. […] The administration was performed only once, and it was performed 6 days after the second sensitization. Meanwhile, the test was performed with n=6. Airway hyper responsiveness (AHR) evaluation was performed as described below. On Day 13 after the second sensitization, the mouse was forced to inhale metacholine (hereinbelow, MCh) of 0, 5, 10 and 20 mM, and the airway resistance parameter (Penh) at 3 minutes after the inhalation of metacholine with different concentrations was measured by a device for measuring unrestrained respiratory function (manufactured by Buxco Research System). AUC value of the Penh value was measured, and a graph of MCh concentration vs. AUC was established.

[3] = test system: rat antigen-induced asthma model; assay: Rat antigen-induced asthma model, eosinophils in bronchoalveolar lavage fluid; type: in vivo
Description: Intraperitoneal administration of 1 mL of aluminum hydroxide gel containing ovalbumin (1 mg/mL) was performed 3 times with one day interval. 14 Days after performing the first sensitization, intraperitoneal administration of 1 mL of aluminum hydroxide gel containing ovalbumin (1 mg/mL) was performed again followed by the second sensitization. 7 Days after the second sensitization, inhalation exposure of physiological saline (10 mg/mL) containing ovalbumin was performed by using a nebulizer five times with one day interval in order to induce asthma.
The 0.6 mg/mL prednisolone suspension was orally administered by using a sonde for oral administration under no anesthesia to have prednisolone amount of 3 mg/kg.
Meanwhile, the test was performed with n=6 to 12.
24 Hours after the fifth exposure, phosphate buffered saline (2 mL) containing 0.1% bovine serum albumin heated to 37° C. was injected to a bronchus of a rat under pentobarbital anesthesia and collected thereafter. This procedure was repeated 5 times to have bronchoalveolar lavage fluid. The bronchoalveolar lavage fluid was centrifuged for 3 minutes at 200×g and room temperature. The supernatant was discarded, and the pellet was re-suspended in phosphate buffered saline (500 μL) containing 0.1% bovine serum albumin.
Subsequently, a smear sample of the suspension was prepared followed by Diff-Quik staining. According to cell fractionation, ratio of eosinophil in white blood cells was calculated. According to integration with the number of white blood cells in bronchoalveolar lavage fluid, the number of […] in bronchoalveolar lavage fluid was calculated. Meanwhile, the number of white blood cells in bronchoalveolar lavage fluid was measured by using a blood cell counting chamber. The results are shown in FIG. 4 and the following table.
Dose responsiveness of the compound va in an OVA sensitized rat model was determined in the same manner as (Test example B2).
There were three doses for determination, i.e., 0.35 mg/kg, 3.5 mg/kg, and 35 mg/kg, such that the budesonide amount for administration is 0.1 mg/kg, 1 mg/kg, or 10 mg/kg.

[4] = test system: mouse model having antigen-induced rhinitis; assay: Mouse model having antigen-induced rhinitis, cough number; type: in vivo; conditions: single intranasal administration 20 μL
Description: As a negative control, phosphate buffered saline was used. As a comparative control, 4 mg/mL budesonide suspension was used. […] From Day 1 after the final nasal cavity sensitization—induction, 20 μL of ovalbumin physiological saline (40 mg/mL) was intranasally administered with 24 hour interval to induce a rhinitis reaction. The induction of the rhinitis reaction was performed 8 times in total for 8 days. […] The phosphate buffered saline, aqueous solution of the compound va, and budesonide suspension were administered only once on the day of inducing initial rhinitis reaction, and 1 hour before administering physiological saline containing ovalbumin. Meanwhile, the test was basically performed with n=6. From the first day to Day 7 after inducing initial rhinitis reaction, number of coughs during 10 minutes after the administration of ovalbumin-containing physiological saline was measured.

Chondroitin Sulfate Introduced with 21-β-Alanyl-Budesonide (25 kDa) [Compound va]
Dissociation ratio (%/day) ([1]; pH 7.4, 36°C): 0.8 %/day
drug dissociation ratio ([1]; pH 7.4, 36°C, day 0): 0.0%
drug dissociation ratio ([1]; pH 7.4, 36°C, day 1): 0.4%
drug dissociation ratio ([1]; pH 7.4, 36°C, day 2): 1.0%
drug dissociation ratio ([1]; pH 7.4, 36°C, day 3): 1.8%
drug dissociation ratio ([1]; pH 7.4, 36°C, day 4): 3.1%
drug dissociation ratio ([1]; pH 7.4, 36°C, day 5): 3.8%
drug dissociation ratio ([1]; pH 7.4, 36°C, day 6): 4.4%
drug dissociation ratio ([1]; pH 7.4, 36°C, day 7): 5.3%
Dissociation ratio (%/day) ([1]; pH 8.0, 36°C): 2.5 %/day
drug dissociation ratio ([1]; pH 8.0, 36°C, day 0): 0.0%
drug dissociation ratio ([1]; pH 8.0, 36°C, day 1): 2.3%
drug dissociation ratio ([1]; pH 8.0, 36°C, day 2): 4.2%
drug dissociation ratio ([1]; pH 8.0, 36°C, day 3): 7.7%
drug dissociation ratio ([1]; pH 8.0, 36°C, day 4): 10.3%
drug dissociation ratio ([1]; pH 8.0, 36°C, day 5): 12.8%
drug dissociation ratio ([1]; pH 8.0, 36°C, day 6): 14.0%
drug dissociation ratio ([1]; pH 8.0, 36°C, day 7): 17.5%
inhibition of enhanced sensitivity to MCh (airway hyper responsiveness, PC100) [2]: inhibited to the level of the control group
eosinophil-inhibiting activity ([3]; 0.35 mg/kg (0.1 mg/kg in budesonide amount), 1 week after the administration): eosinophil-inhibiting activity was shown
dose responsiveness of eosinophil-inhibiting activity ([3]; 0.35, 3.5 and 35 mg/kg): observed with dose responsiveness
change in average cough number Day 1 to Day 7 and total cough number during 8 days [4]: exhibited an inhibition
